Several values for one entry are separate records, joined by “and”; a condition that tells them apart may be missing. Equal values may be shown once. One block for each binder: values may come before it.
Columns and labels:
[1] = target: T1, human CD3ε/δ (ACRO systems, CDD-H52W1) (human, UniProt P07766 23-126; P04234 22-105); test: BLI, antibody captured, antigen in solution;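 further: bispecific antibodies captured on AHIC biosensors to a 1.5 nm loading signal, in PBST with 0.02% detergent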
T1 construct: Bought protein; also called human CD3ϵ/CD3δ; human CD3 epsilon/delta antigen
Experimental: The bispecific antibodies were diluted to 5 ag/ml, and 1.5 nm protein was coupled to the surface of the AHIC sensor chip through 0.02% PBST.

[2] = target: T2, human CD3 on Jurkat cells (human, UniProt P07766 23-207; P04234 22-171; P09693 23-182); test: FACS, Jurkat cells;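 further: flow cytometric binding of bispecific antibodies to Jurkat T cells, threefold serial dilutions incubated half an hour in the cold, EC50 taken from the fitted binding curve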
T2 construct: whole, on cells; CD3 complex as on Jurkat (Clone E6-1) cells; also called CD3 expressing cells (Jurkat)

Kd [1]: 2.38 nM | koff [1]: 0.000666 s⁻¹ | kon [1]: 279000 M⁻¹ s⁻¹ | EC50 [2]: 0.195 µg/mL and 1.5 nM
B1: CEA-Fab-Knob-+Hole (205) (bispecific antibody, human IgG4 S228P, kappa, F234A L235A)
heavy: EVQLVESGGGFVQAGESLTLSCTSSTLTFTPYRMAWYRQAPGKQRDLVADISSGDGRTTNYADFAKGRFTISRDNIKNTVFLRMTNLKPEDTAVYYCNTFVSFVGIARSWGQGTQVTVSSGGGGSGGGGSEVKLLESGGGLVQPKGSLKLSCAASGFTFNTYAMNWVRQAPGKGLEWVARIRSKYNNYATYYADSVKDRFTISRDDSQSILYLQMNNLKTEDTAMYYCVRHGNFGNSYVSWFAYWGQGTLVTVSSASTKGPSVFPLAPCSRSTSESTAALGCLVKDYFPEPVTVSWNSGALTSGVHTFPAVLQSSGLYSLSSVVTVPSSSLGTKTYTCNVDHKPSNTKVDKRVESKYGPPCPPCPAPEAAGGPSVFLFPPKPKDTLMISRTPEVTCVVVDVSQEDPEVQFNWYVDGVEVHNAKTKPREEQFNSTYRVVSVLTVLHQDWLNGKEYKCKVSNKGLPSSIEKTISKAKGQPREPQVYTLPPCQEEMTKNQVSLWCLVKGFYPSDIAVEWESNGQPENNYKTTPPVLDSDGSFFLYSRLTVDKSRWQEGNVFSCSVMHEALHNHYTQKSLSLSL
chain: ESKYGPPCPPCPAPEAAGGPSVFLFPPKPKDTLMISRTPEVTCVVVDVSQEDPEVQFNWYVDGVEVHNAKTKPREEQFNSTYRVVSVLTVLHQDWLNGKEYKCKVSNKGLPSSIEKTISKAKGQPREPQVCTLPPSQEEMTKNQVSLSCAVKGFYPSDIAVEWESNGQPENNYKTTPPVLDSDGSFFLVSRLTVDKSRWQEGNVFSCSVMHEALHNRFTQKSLSLSL
light: QAVVTQESALTTSPGETVTLTCRSSTGAVTTSNYANWVQEKPDHLFTGLIGGTNKRAPGVPARFSGSLIGDKAALTITGAQTEDEAIYFCALWYSNLWVFGGGTKVEIKRTVAAPSVFIFPPSDEQLKSGTASVVCLLNNFYPREAKVQWKVDNALQSGNSQESVTEQDSKDSTYSLSSTLTLSKADYEKHKVYACEVTHQGLSSPVTKSFNRGEC
notes: VHH linked to the VH of the Fab; human IgG4 knob-into-hole Fc

Kd [1]: 2.85 nM | koff [1]: 0.00087 s⁻¹ | kon [1]: 324000 M⁻¹ s⁻¹ | EC50 [2]: 0.267 µg/mL and 2.05 nM
B2: 305 (TA6), configuration of FIG. 1W (bispecific antibody, IgG4)
heavy: EVQLVQSGAEVKKPGASVKVSCKASGYTFTNYYIHWVRQAPGQGLEWIGWIYPGDGNTKYNEKFKGRATLTADTSTSTAYLELSSLRSEDTAVYYCARDSYSNYYFDYWGQGTLVTVSSASTKGPSVFPLAPCSRSTSESTAALGCLVKDYFPEPVTVSWNSGALTSGVHTFPAVLQSSGLYSLSSVVTVPSSSLGTKTYTCNVDHKPSNTKVDKRVESKYGPPCPPCPAPEAAGGPSVFLFPPKPKDTLMISRTPEVTCVVVDVSQEDPEVQFNWYVDGVEVHNAKTKPREEQFNSTYRVVSVLTVLHQDWLNGKEYKCKVSNKGLPSSIEKTISKAKGQPREPQVYTLPPCQEEMTKNQVSLWCLVKGFYPSDIAVEWESNGQPENNYKTTPPVLDSDGSFFLYSRLTVDKSRWQEGNVFSCSVMHEALHNHYTQKSLSLSL
chain: EVQLVESGGGFVQAGESLTLSCTSSTLTFTPYRMAWYRQAPGKQRDLVADISSGDGRTTNYADFAKGRFTISRDNIKNTVFLRMTNLKPEDTAVYYCNTFVSFVGIARSWGQGTQVTVSSESKYGPPCPPCPAPEAAGGPSVFLFPPKPKDTLMISRTPEVTCVVVDVSQEDPEVQFNWYVDGVEVHNAKTKPREEQFNSTYRVVSVLTVLHQDWLNGKEYKCKVSNKGLPSSIEKTISKAKGQPREPQVCTLPPSQEEMTKNQVSLSCAVKGFYPSDIAVEWESNGQPENNYKTTPPVLDSDGSFFLVSRLTVDKSRWQEGNVFSCSVMHEALHNRFTQKSLSLSL
light: DIVMTQSPDSLAVSLGERATINCKSSQSLLNSRTRKNYLAWYQQKPGQPPKLLIYWASTRESGVPDRFSGSGSGTDFTLTISSLQAEDVAVYYCTQSFILRTFGQGTKVEIK
notes: chains put together from VH/VL, CH1, knob-Fc; IgG4, kappa; also called CEA-CD3 bispecific antibody 305; not shown: kappa light chain constant domain (CL)

— US20240400715A1 (VIBRANT PHARMA, published 2024)
